Changes are numbered by the printed parent chain. Names may count otherwise. One block for each binder: values may come before it.
What was measured:
[1] = target: endogenously expressed human MSR1 on PMA-treated THP-1 cells (human) (UniProt P21757); test: confocal imaging, differentiated THP-1 cells, Alexa 488 secondary
[2] = target: endogenously expressed human MSR1 on PMA-treated THP-1 cells (human) (UniProt P21757); test: ECL cell binding, PMA-treated THP-1 cells, 11 nM
[3] = target: endogenously expressed human MSR1 on PMA-treated THP-1 cells (human) (UniProt P21757); test: cell-based or functional assay

Sequence of endogenously expressed human MSR1 on PMA-treated THP-1 cells (human) (P21757 whole entry): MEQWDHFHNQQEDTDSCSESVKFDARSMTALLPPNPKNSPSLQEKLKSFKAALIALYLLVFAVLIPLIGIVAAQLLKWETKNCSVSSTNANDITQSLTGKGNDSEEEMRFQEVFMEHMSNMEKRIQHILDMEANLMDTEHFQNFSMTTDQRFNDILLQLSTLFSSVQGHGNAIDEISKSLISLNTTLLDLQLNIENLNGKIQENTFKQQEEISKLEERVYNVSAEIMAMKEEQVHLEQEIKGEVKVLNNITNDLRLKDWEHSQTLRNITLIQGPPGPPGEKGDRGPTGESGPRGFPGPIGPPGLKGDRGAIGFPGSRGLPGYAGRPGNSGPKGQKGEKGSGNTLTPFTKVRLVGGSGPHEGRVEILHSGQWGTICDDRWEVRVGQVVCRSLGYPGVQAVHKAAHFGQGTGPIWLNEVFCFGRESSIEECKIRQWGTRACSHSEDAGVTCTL

B1: H1H21234N-N297Q (antibody, human IgG1, V domains shown)
VH: QVQLQESGPGLVKPSETLSLTCTVTGGSISRNYWSWIRQPPGKGLEWIGYIYYSGSIDYNPSLKSRVTISVDTSKNQFSLKLSSMTAADTAVYYCARDRWNWKYGMDVWGQGTTVIVSS
VL: EIVLTQSPGTLSLSPGERATLSCRASQTVRNNYLAWYHQKPGQAPRLLIYGASSRATGIPDRFSGSGSGTDFTLTISRLEPEDFTVYYCHQYGNSPWTFGQGTKMEIKR
- Total Binding at 4° C. (RFU) [1]: 1.95e+06 RFU
- Total Binding at 37° C. (RFU) [1]: 5.45e+06 RFU
- ratio of binding signal (RLU) to isotype control [2]: 25 fold
- % Internalization [3]: 13.3%
- Total Internalized RFU [3]: 723000 RFU

B2: H1H21234N (antibody, human IgG1, V domains shown)
VH: B1 VH
VL: B1 VL
- ratio of binding signal (RLU) to isotype control [2]: 18 fold

B7: H1H27734P-N297Q (antibody, human IgG1, V domains shown)
VH: EVQLVESRGGLVQPGGSLRLSCAASGFTFSSYAMSWVRQAPGKGLEWVSAISGSGGSTFYADSVKGRFTISRDNSKNTVYLQMNSLRAEDTAVYYCAKALVLRFLEWLGDYWGQGTLVTVSS
VL: DIQMTQSPSTLSASVGDRVTITCRASQSISSWLAWFQQKPGKAPKLLIYKASSLESGVPSRFSGSGSGTEFTLTISSLQPDDFATYYCQQYKSYWTFGQGTKVEIKR
- Total Binding at 4° C. (RFU) [1]: 483000 RFU
- Total Binding at 37° C. (RFU) [1]: 1.15e+06 RFU
- ratio of binding signal (RLU) to isotype control [2]: 21 fold
- Total Internalized RFU [3]: 737000 RFU

B8: H1H27729P-N297Q (antibody, human IgG1, V domains shown)
VH: QVQLVESGGGLVKPGGSLRLSCAASGFIFSDYYMSWIRQAPGKGLEWVSYISSSGTTIYGDSVKGRFTMSRDNAKNSLYLQMNSLRAEDTAVYYCARNYALFDYWGQGTLVTVSS
VL: DIQMTQSPSSLSASVGDRVTITCQASQDISKYLNWYQQKPGKAPKLLIYYTSNLETGVPSRFSGSGSGTDFTFTISSLQPEDIATYYCHQSDYLPFTFGPGTKVDIKR
- Total Binding at 4° C. (RFU) [1]: 1.93e+06 RFU
- Total Binding at 37° C. (RFU) [1]: 6.61e+06 RFU
- ratio of binding signal (RLU) to isotype control [2]: 8 fold
- % Internalization [3]: 57%
- Total Internalized RFU [3]: 3.76e+06 RFU

B10: H1H21227N-N297Q (antibody, human IgG1, V domains shown)
VH: QVQLVQSGAEVKKPGASVKVSCKVSGYTLTELSIHWVRQVPGKGLEWMGGFDPEEGETIFAQEFRDRVTLTEDTSPDTAYMELSSLKSEDAAVYYCTTPRYCNNGICYDYWGQGTLVTVSS
VL: DIQMTQSPSSLSASVGDRVTITCRASQSISNYLNWYQQKPGKAPKLLIYTASSLQSGVPSRFSGSGSGTDFTLTISSLQTEDFATYYCQQSYSNFPITFGQGTRLEIKR
- Total Binding at 4° C. (RFU) [1]: 1.8e+06 RFU
- Total Binding at 37° C. (RFU) [1]: 4.11e+06 RFU
- ratio of binding signal (RLU) to isotype control [2]: 5 fold
- % Internalization [3]: 78.5%
- Total Internalized RFU [3]: 3.23e+06 RFU

B11: H1H21227N (antibody, human IgG1, V domains shown)
VH: B10 VH
VL: B10 VL
- ratio of binding signal (RLU) to isotype control [2]: 7 fold

B14: H1H21227N-N297D (antibody, human IgG1, V domains shown)
VH: B10 VH
VL: B10 VL
- ratio of binding signal (RLU) to isotype control [2]: 6 fold

B15: H1H21231N-N297Q (antibody, human IgG1, V domains shown)
VH: EVQLVESGGGLVQPGGSLRLSCAASGFTFSDHYMDWVRQAPGKGLEWVGRTRNKANSHTTEYTASVTGRFTISRDDSRNSLYLQMNSLKTEDTAVYYCVRAGIIGTLFDYWGQGTLVTVSS
VL: B10 VL with S7F, N31S, Y32F, Y36F, L46F, T50A, T80P, N94S, F95P
- ratio of binding signal (RLU) to isotype control [2]: 45 fold

B16: H1H21231N (antibody, human IgG1, V domains shown)
VH: B15 VH
VL: B10 VL with S7F, N31S, Y32F, Y36F, L46F, T50A, T80P, N94S, F95P
- ratio of binding signal (RLU) to isotype control [2]: 42 fold

The remaining lines, values ahead:

- ratio of binding signal (RLU) to isotype control [2]: 8 fold
B3: H2aM25695N (antibody, mouse IgG2a, V domains shown)
VH: B1 VH with D58N, T73M, S83N, M85V
VL: B1 VL with N32S, T85A, H90Q, N94S, P96Y

- Total Binding at 4° C. (RFU) [1]: 3.7e+06 RFU
- Total Binding at 37° C. (RFU) [1]: 5.61e+06 RFU
- ratio of binding signal (RLU) to isotype control [2]: 9 fold
- % Internalization [3]: 71.6%
- Total Internalized RFU [3]: 4.02e+06 RFU
B4: H1H27739P-N297Q (antibody, human IgG1, V domains shown)
VH: EVQLVESGGGLVQPGGSLRLSCTASGFTFSSYAMSWVRQAPGKGLEWVSAISGTGSSTYFTDSVKGRFAISRDNSKNTLYLQMNSLRAEDTAVYYCAKDGEWLSTVTLFDYWGQGTLVTVSS
VL: EIVMTQSPATLSVSPGERATLSCRASQSVSSNLAWYQQKPGQAPRLLIYGASTRATGIPARFSGSGSGTDFTLTISSLQSEDFALYYCQQYFIWPPHPTFGPGTKVDIKR

- Total Binding at 4° C. (RFU) [1]: 2.52e+06 RFU
- Total Binding at 37° C. (RFU) [1]: 5.92e+06 RFU
- ratio of binding signal (RLU) to isotype control [2]: 13 fold
- % Internalization [3]: 58.2%
- Total Internalized RFU [3]: 3.44e+06 RFU
B5: H1H27747P-N297Q (antibody, human IgG1, V domains shown)
VH: QVQLVESGGAVVQPGRSLRLSCAASGFTFSYYGMHWVRQAPGKGLEWVAVISYDGSKKYYADSVKGRFTISRDNSKNTLYLQMNSLRAEDTAVYYCAKDLTVDFYYGMDVWGQGTTVTVSS
VL: DIQMTQSPSSVSASVGDRVTITCRASQGISSWLAWYQQKPGKAPKLLIYATSSLQSGAPSRFSGSGSGTDFTLTISSLQPEDFATYFCQQANSFPYTFGQGTKLEIKR

- Total Binding at 4° C. (RFU) [1]: 3.08e+06 RFU
- Total Binding at 37° C. (RFU) [1]: 7.16e+06 RFU
- ratio of binding signal (RLU) to isotype control [2]: 66 fold
- % Internalization [3]: 90%
- Total Internalized RFU [3]: 6.45e+06 RFU
B6: H1H27754P-N297Q (antibody, human IgG1, V domains shown)
VH: EVQLVESGGGLVQPGGSLRLSCAASGFTFRTYAMTWVRQAPGKGLDWVSAITGDGGNTYYADSVKGRFTISRDNSKNTLYLQMNSLRAEDTAIYYCAKDQRFSFALYYFDYWGQGTLVTVSS
VL: B5 VL with K42N, T51A, S52F, A58V, F87Y, S93N, Y96W, L104V

- ratio of binding signal (RLU) to isotype control [2]: 56 fold
B9: H2aM21229N (antibody, mouse IgG2a, V domains shown)
VH: EVQLVESGGGLVKPGGSLRLSCAASGFTFSRYSMNWVRQAPGKGLEWVSSISSSSSYIYYGDTVKGRFTISRDNAKKSLYLQMNSLRAEDTAVYYCVRDRGQLVLYFDYWGQGTLVTVSS
VL: DIQMTQSPASLSTSIRDRVTITCRASLSISSFLNWFQQRPGKAPKLLIYVASNLQSGVPSRFSDSGSGTDFTLTISSLQPEDFATYYCQQNYSTPPITFGQGTRLEIK

- ratio of binding signal (RLU) to isotype control [2]: 25 fold
B12: H2aM25690N (antibody, mouse IgG2a, V domains shown)
VH: EVQLLESGGGLVQPGGSLRLSCAASGFTFSNYAMTWVRQAPGTGLEWVSAISGRGSNTYYTDSVKGRFTISRDNSKNMLYLQMNSLRAEDTASYYCAKDRFTTVGNWFDPWGQGTLVTVSS
VL: B10 VL with N31S, T50A, S56N, T80P, N94S, F95L, E106D

- ratio of binding signal (RLU) to isotype control [2]: 3 fold
B13: H2aM25700N (antibody, mouse IgG2a, V domains shown)
VH: QVQLVQSGSEVKKPGASVKVSCKVSGYTLTELSIHWVRQAPGKGLEWMGGFDPEDGETIYAQKFRGRVTMTEDISPDTAYMELSSLRSEDTAVYYCATPRYCNNGICYDYWGQGTLVTVSS
VL: B10 VL with V15I, N31S, K45M, T50A, N94T, F95P
